Assay results from patent US7364741.
Where two headings read alike, the source gives them in different places.

Assays:
[1] = target: HLA-A2.1 molecules expressed by 174CEM.T2 cells (human); assay: T2 HLA-A2.1 stabilisation, flow cytometry (BB7.2), peptide 200 ug/ml
[2] = target: HLA-A1 molecules isolated from the EBV transformed cell line Steinlin (human); assay: competition with radiolabeled probe [..], purified HLA-A1; IC50 standard / IC50 peptide
[3] = target: HLA-A24 molecules isolated from the EBV transformed cell line KT3 (human); assay: competition with radiolabeled probe [..], purified HLA-A24; IC50 standard / IC50 peptide
[4] = target: T1, HLA-A3.2 molecules isolated from the EBV transformed cell line GM3107 (human); assay: competition with radiolabeled probe [..], purified HLA-A3.2; IC50 standard / IC50 peptide
[5] = target: HLA-A11.2 molecules isolated from the cell line BVR (human); assay: competition with radiolabeled probe [..], purified HLA-A11.2; IC50 standard / IC50 peptide
[6] = target: T1, HLA-A3.2 molecules isolated from the …
[7] = remark: other sources report otherwise

Binder	FI (Fluorescence Index) [1]	MF (mean fluorescence) [1]	further results
KISEYRHYC (modifications not checked) [… (residues 79-87 of HPV16 protein E6)]	2.2	212	–
CVYCKQQLL (modifications not checked) [… (residues 37-45 of HPV16 protein E6)]	–	–	FI (Fluorescence Index) [1, 7]: 2; MF (mean fluorescence) [1, 7]: 195
QLFLNTLSF (modifications not checked) [… (residues 88-96 of HPV18 protein E7)]	0.8	258	–
LSFVCPWCA (modifications not checked) [… (residues 94-102 of HPV18 protein E7)]	0.9	262	–
HVDIRTLED (modifications not checked) [… (residues 73-81 of HPV16 protein E7)]	–	–	binding ratio to standard [2]: 0.014
MHQKRTAMF (modifications not checked) [… (residues 1-9 of HPV16 protein E6)]	–	–	binding ratio to standard [3]: 0.0049
YMLDLQPET (modifications not checked) [… (residues 11-19 of HPV16 protein E7)]	3.3	284	–
AMFQDPQER (modifications not checked) [… (residues 7-15 of HPV16 protein E6)]	–	–	binding ratio to standard [4, 7]: 0.1; binding ratio to standard [5, 7]: 0.84
RFHNIRGRW (modifications not checked) [… (residues 131-139 of HPV16 protein E6)]	–	–	binding ratio to standard [3]: 0.1
ELTEVFEFA (modifications not checked) [… (residues 40-48 of HPV18 protein E6)]	–	–	FI (Fluorescence Index) [1, 7]: 1.1; MF (mean fluorescence) [1, 7]: 289
LCTELQTTI (modifications not checked) [… (residues 22-30 of HPV16 protein E6)]	0.7	114	–
RAHYNIVTF (modifications not checked) [… (residues 49-57 of HPV16 protein E7)]	–	–	binding ratio to standard [3]: 0.067
DTLEKLTNT (modifications not checked) [… (residues 88-96 of HPV18 protein E6)]	0.7	238	–
LLRREVYDF (modifications not checked) [… (residues 44-52 of HPV16 protein E6)]	–	–	binding ratio to standard [3]: 0.0023
SLQDIEITC (modifications not checked) [… (residues 24-32 of HPV18 protein E6)]	0.7	244	–
TLEDLLMGT (modifications not checked) [… (residues 78-86 of HPV16 protein E7)]	1.8	183	–
SLYGTTLEQ (modifications not checked) [… (residues 89-97 of HPV16 protein E6)]	–	–	binding ratio to standard [4]: 0.008
QQLLRREVY (modifications not checked) [… (residues 42-50 of HPV16 protein E6)]	–	–	binding ratio to standard [4]: 0.0058; binding ratio to standard [5]: 0.0084
IVYRDGNPY (modifications not checked) [… (residues 59-67 of HPV16 protein E6)]	–	–	binding ratio to standard [4, 7]: 3; binding ratio to standard [5, 7]: 0.47
RLCVQSTHV (modifications not checked) [… (residues 66-74 of HPV16 protein E7)]	2.8	250	–

Binder	FI (Fluorescence Index) [1]	MF (mean fluorescence) [1]	further results
EIDGPAGQA (modifications not checked) [… (residues 37-45 of HPV16 protein E7)]	–	–	binding ratio to standard [2]: 0.025
IHDIILECV (modifications not checked) [… (residues 30-38 of HPV16 protein E6)]	1.3	151	–
QLCTELQTT (modifications not checked) [… (residues 21-29 of HPV16 protein E6)]	–	–	FI (Fluorescence Index) [1, 7]: 2.2; MF (mean fluorescence) [1, 7]: 212
MLDLQPETT (modifications not checked) [… (residues 12-20 of HPV16 protein E7)]	2.3	218	–
LFLNTLSFV (modifications not checked) [… (residues 89-97 of HPV18 protein E7)]	1.6	360	–
TTLEQQYNK (modifications not checked) [… (residues 93-101 of HPV16 protein E6)]	–	–	binding ratio to standard [4]: 0.078
FAFKDLFVV (modifications not checked) [… (residues 47-55 of HPV18 protein E6)]	2.3	463	–
PLCDLLIRC (modifications not checked) [… (residues 102-110 of HPV16 protein E6)]	2.1	205	–
KLPDLCTEL (modifications not checked) [… (residues 13-21 of HPV18 protein E6)]	–	–	FI (Fluorescence Index) [1, 7]: 2.1; MF (mean fluorescence) [1, 7]: 439
EITCVYCKT (modifications not checked) [… (residues 29-37 of HPV18 protein E6)]	–	–	FI (Fluorescence Index) [1, 7]: 0.5; MF (mean fluorescence) [1, 7]: 206
TIHDIILEC (modifications not checked) [… (residues 29-37 of HPV16 protein E6)]	1.8	184	–
GTLGIVCPI (modifications not checked) [… (residues 85-93 of HPV16 protein E7)]	2.3	216	–
KFYSKISEY (modifications not checked) [… (residues 75-83 of HPV16 protein E6)]	–	–	binding ratio to standard [6, 7]: 0.01
FQQLFLNTL (modifications not checked) [… (residues 86-94 of HPV18 protein E7)]	0.8	244	–
KTVLELTEV (modifications not checked) [… (residues 36-44 of HPV18 protein E6)]	2.3	468	–
YRDGNPYAV (modifications not checked) [… (residues 61-69 of HPV16 protein E6)]	–	–	binding ratio to standard [2]: 0.008
KVFPYALINK (modifications not checked) [probe peptide … for A3.2]	–	–	IC50 [6]: 30 nM
VYDFAFRDL (modifications not checked) [… (residues 49-57 of HPV16 protein E6)]	–	–	binding ratio to standard [3]: 0.061
HLDKKQRFH (modifications not checked) [… (residues 125-133 of HPV16 protein E6)]	–	–	binding ratio to standard [4, 7]: 0.44
LTNTGLYNL (modifications not checked) [… (residues 93-101 of HPV18 protein E6)]	1.5	352	–
